B1: Membrane-associated guanylate kinase, WW and PDZ domain-containing protein 1, residues 352 to 401; numbered along this chain, Q96QZ7 (parent)
chain: TEELDSELELPAGWEKIEDPVYGIYYVDHINRKTQYENPVLEAKRKKQLE
B2: Mineralocorticoid receptor, residues 600 to 675; numbered along this chain, P08235 (parent)
chain: SKICLVCGDEASGCHYGVVTCGSCKVFFKRAVEGQHNYLCAGRNDCIIDKIRRKNCPACRLQKCLQAGMNLGARKS

Variants of: B1
Test: abundance fitness (aPCA) (normalised: wild type 0, dead -1); higher = more abundant; growth selection in yeast, the domain comes from the species named
Conditions: Homo sapiens

Abundance fitness of substitutions, site by site:
R45: M -0.159, L -0.302, D -0.171, S -0.067, F -0.248, T 0.048, Y -0.266, C -0.241, K 0.02, E 0.073, G -0.113, V -0.162, N -0.363, P -0.056, W -0.352, Q -0.032, A -0.193, H -0.564
A43: W -0.231, Q -0.024, N -0.014, R -0.11, T 0.045, P -0.184, M -0.044, V -0.131, Y -0.33
K47: N -0.318, W -0.414, H -0.172, T -0.077, E -0.25, M -0.102, G -0.169, C -0.232, Q 0.013, A -0.075, Y -0.207, R -0.163, L -0.008, P -0.121, D -0.154, F -0.239, S 0.016
K46: W -0.331, Q -0.026, N -0.41, A -0.063, M -0.328, P -0.044, E -0.256, D 0.012, H 0.173, V -0.065, F -0.27, Y -0.169, L -0.133, S -0.093, G -0.089, C -0.103, T -0.333, R -0.094
L49: Y -0.048, K -0.002, P -0.049, M 0.154, V -0.138, T -0.002, W -0.239, E 0.132, H -0.073, F -0.328, I -0.232, A -0.003, N -0.222
Q48: L -0.279, T -0.17, V -0.115, K -0.035, S -0.035, H -0.1, M 0.001, R -0.227, G -0.221, N 0.107, P -0.528, I 0.188, F -0.339, A -0.045, Y -0.152, W -0.26, C -0.134, D 0.017, E 0.262
K44: A -0.079, M -0.064, Q -0.086, Y -0.041, P -0.27, T -0.2, W -0.237, S -0.106, F -0.186, D -0.106, L -0.061, C -0.03, G -0.068, R -0.057, H -0.196, V -0.286, E 0.019, I -0.438
E50: Q -0.438, K -0.264, S -0.321, I -0.273, D 0.006, W 0.058, R -0.841, C 0.327, T -0.174, V -0.332, H -0.699, A 0.032, L -0.223

Variants of: B2
Test: as above
Conditions: Homo sapiens

Abundance fitness: each site, then its substitutions
D9: Y -0.161, G -0.053, I -0.168
L61: V -0.101, K 0.021, C -0.843, H -0.233
T20: H -0.186, P -0.691
C21: R -0.962, E -0.854
G68: H -0.381
M69: G -0.235, W -0.427
V26: R 0.033
A11: H -0.13, I -0.354, V -0.222, R -0.089
K29: E -0.105, C -0.142, T -0.012, F -0.167, L -0.072, A 0.016
Y38: C -0.153, S -0.049
L39: F -0.027, R -0.019
C24: L -0.581, P -0.878, M -1.04, D -0.252
R74: W 0, D -0.003
D45: K -0.072, I -0.1, W -0.249
K75: L -0.056, W -0.007, D -0.057, M -0.025
